Results from patent US20140274782A1 (Stanford University, published 2014).

Columns and labels:
Test in all cases: ProtoArray, GST-treated control array;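 further: human protein microarray (about 9500 recombinant proteins) incubated overnight with GST alone plus SAM cofactor as the negative control for G9a SET domain methylation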
[1] = target: T1, BLCAP-bladder cancer associated protein (BLCAP) (human, UniProt P62952 1-87)
T1 sequence (looked up): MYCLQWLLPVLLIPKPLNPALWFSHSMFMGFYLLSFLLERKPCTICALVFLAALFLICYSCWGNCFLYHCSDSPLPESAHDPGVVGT

[2] = target: T2, GPR108-G protein-coupled receptor 108 (GPR108) (human, UniProt Q9NPR9 33-543, limits assumed)
T2 sequence (looked up): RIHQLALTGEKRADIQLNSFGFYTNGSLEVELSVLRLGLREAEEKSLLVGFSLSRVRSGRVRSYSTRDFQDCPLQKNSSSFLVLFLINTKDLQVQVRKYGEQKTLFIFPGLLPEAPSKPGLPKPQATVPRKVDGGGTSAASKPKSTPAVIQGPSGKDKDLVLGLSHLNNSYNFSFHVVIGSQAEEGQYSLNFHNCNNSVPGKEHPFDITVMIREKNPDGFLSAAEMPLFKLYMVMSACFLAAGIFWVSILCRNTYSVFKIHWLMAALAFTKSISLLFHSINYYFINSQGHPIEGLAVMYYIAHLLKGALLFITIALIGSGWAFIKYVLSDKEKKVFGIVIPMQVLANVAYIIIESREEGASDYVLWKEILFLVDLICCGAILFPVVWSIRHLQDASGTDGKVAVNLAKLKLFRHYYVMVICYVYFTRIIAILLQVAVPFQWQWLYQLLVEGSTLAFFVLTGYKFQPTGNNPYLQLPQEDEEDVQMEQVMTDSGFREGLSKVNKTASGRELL

[3] = target: T3, GAL-galanin prepropeptide (GAL) (human, UniProt P22466 1-123, limits assumed)
T3 sequence (looked up): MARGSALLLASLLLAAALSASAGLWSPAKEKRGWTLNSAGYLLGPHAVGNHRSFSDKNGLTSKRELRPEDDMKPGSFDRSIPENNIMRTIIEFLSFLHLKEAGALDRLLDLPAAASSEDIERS

[4] = target: T4, SH3YL1-SH3 domain containing, Ysc84-like 1 (S. cerevisiae) (SH3YL1) (human, UniProt Q96HL8 1-342, limits assumed)
T4 sequence (looked up): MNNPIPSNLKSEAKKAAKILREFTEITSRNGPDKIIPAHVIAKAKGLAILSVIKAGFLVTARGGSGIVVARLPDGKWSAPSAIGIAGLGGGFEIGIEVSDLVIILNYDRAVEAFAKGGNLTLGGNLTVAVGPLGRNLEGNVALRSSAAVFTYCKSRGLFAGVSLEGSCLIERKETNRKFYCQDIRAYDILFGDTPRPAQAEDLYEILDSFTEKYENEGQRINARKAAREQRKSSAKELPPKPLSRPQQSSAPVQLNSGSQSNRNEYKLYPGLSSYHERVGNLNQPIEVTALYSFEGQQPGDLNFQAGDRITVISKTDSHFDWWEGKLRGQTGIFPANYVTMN

[5] = target: T5, SH3YL1-SH3 domain containing, Ysc84-like 1 (S. cerevisiae), mRNA (cDNA clone MGC:12275 IMAGE:3996120), … (human, UniProt Q96HL8 1-342, limits assumed)
T5 sequence (looked up): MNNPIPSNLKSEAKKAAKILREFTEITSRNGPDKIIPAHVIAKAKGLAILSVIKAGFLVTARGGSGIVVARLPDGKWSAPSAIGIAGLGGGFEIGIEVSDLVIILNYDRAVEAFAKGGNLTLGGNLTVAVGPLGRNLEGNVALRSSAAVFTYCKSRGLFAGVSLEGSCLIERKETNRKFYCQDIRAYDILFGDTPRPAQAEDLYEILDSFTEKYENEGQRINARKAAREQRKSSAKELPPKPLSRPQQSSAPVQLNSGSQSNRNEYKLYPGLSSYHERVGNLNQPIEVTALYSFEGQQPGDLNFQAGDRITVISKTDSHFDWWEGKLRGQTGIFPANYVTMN

[6] = target: T6, TMED5-transmembrane emp24 protein transport domain containing 5 (TMED5) (human, UniProt Q9Y3A6 28-229, limits assumed)
T6 sequence (looked up): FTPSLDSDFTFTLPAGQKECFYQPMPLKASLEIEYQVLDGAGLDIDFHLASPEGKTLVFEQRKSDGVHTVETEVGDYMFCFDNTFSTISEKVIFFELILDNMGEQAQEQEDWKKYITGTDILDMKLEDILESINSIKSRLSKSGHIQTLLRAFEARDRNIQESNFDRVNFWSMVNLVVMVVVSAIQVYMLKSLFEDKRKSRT

[7] = target: T7, LRRC20-leucine rich repeat containing 20 (LRRC20) (human, UniProt Q8TCA0 1-184, limits assumed)
T7 sequence (looked up): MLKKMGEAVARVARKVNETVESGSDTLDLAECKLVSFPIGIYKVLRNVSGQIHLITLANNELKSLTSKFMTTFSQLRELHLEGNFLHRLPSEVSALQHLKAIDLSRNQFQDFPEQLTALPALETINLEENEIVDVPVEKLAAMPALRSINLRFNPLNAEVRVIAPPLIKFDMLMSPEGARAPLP

[8] = target: T8, MAGEH1-melanoma antigen family H, 1 (MAGEH1) (human, UniProt Q9H213 1-219)
T8 sequence (looked up): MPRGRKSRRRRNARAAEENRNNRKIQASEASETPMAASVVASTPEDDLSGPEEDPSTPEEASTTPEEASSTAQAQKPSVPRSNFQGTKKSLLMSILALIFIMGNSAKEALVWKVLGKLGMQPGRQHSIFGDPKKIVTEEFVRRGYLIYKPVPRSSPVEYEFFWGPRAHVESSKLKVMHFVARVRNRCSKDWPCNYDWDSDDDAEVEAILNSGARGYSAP

GST Average SNR [1]: 0.932
GST Average SNR [2]: -0.788
GST Average SNR [3]: -0.0625
GST Average SNR [4]: 0.377
GST Average SNR [5]: 0.26
GST Average SNR [6]: -0.425
GST Average SNR [7]: 1.4
GST Average SNR [8]: 1.11
B1: 3× Flag-3×MBT (designed binder)
chain: EEWSSSQPATGEKKECWSWESYLEEQKAITAPVSLFQDSQAVTHNKNGFKLGMKLEGIDPQHPSMYFILTVAEVCGYRLRLHFDGYSECHDFWVNANSPDIHPAGWFEKTGHKLQPPKGYKEEEFSWSQYLRSTRAQAAPKHLFVSQSHSPPPLGFQVGMKLEAVDRMNPSLVCVASVTDVVDSRFLVHFDNWDDTYDYWCDPSSPYIHPVGWCQKQGKPLTPPQDYPDPDNFCWEKYLEETGASAVPTWAFKVRPPHSFLVNMKLEAVDRRNPALIRVASVEDVEDHRIKIHFDGWSHGYDFWIDADHPDIHPAGWCSKTGHPLQPPLGPREPSSASPGG
notes: also called Flag-tagged 3×MBT; 3xFlag-3xMBT; not shown: made by PreScission cleavage of GST-3× Flag-3×MBT
